Substrate: NCCSC[C@H](N)C(=O)O
Assay: cells, lysate or membranes
Settings: inside-out membrane vesicles energized with 0.25 mM ATP; 50 mM KCl, 10 mM MgSO4, valinomycin 0.25 uM; Thl 0.5-5 mM; Thl/H+ antiport (export direction)

B1: LysO (LysON-HA) (Escherichia coli K-12) (protein)
chain: MFSGLLIILVPLIVGYLIPLRQQAALKVINQLLSWMVYLILFFMGISLAFLDNLASNLLAILHYSAVSITVILLCNIAALMWLERGLPWRNHHQQEKLPSRIAMALESLKLCGVVVIGFAIGLSGLAFLQHATEASEYTLILLLFLVGIQLRNNGMTLKQIVLNRRGMIVAVVVVVSSLIGGLINAFILDLPINTALAMASGFGWYSLSGILLTESFGPVIGSAAFFNDLARELIAIMLIPGLIRRSRSTALGLCGATSMDFTLPVLQRTGGLDMVPAAIVHGFILSLLVPILIAFFSA
  Km: 1500 µM

Reference: paper PMC8498466
